Measured values from publication PMC3823998, “Structural and Functional Characterization of the Redβ Recombinase from Bacteriophage λ” (PLoS ONE, 2013).
Changes are numbered by the printed parent chain.

What was measured:
Assay in all cases: EMSA; glutaraldehyde-fixed; ssDNA EMSA: 10 nM DNA, 50 mM potassium phosphate pH 6.0, 5 mM EDTA, 5% glycerol, 0.1 mg/ml BSA, 37°C, 40 min, then 0.1% glutaraldehyde; second-strand EMSA: 5 nM each strand, 20 mM Tris-HCl pH 7.5, 5 mM MgCl2, 1 mM DTT, 0.1 mg/ml BSA, 37°C
Redβ WT = target: T1, Redβ WT (Bacteriophage λ (Enterobacteria phage λ), UniProt P03698 1-261); details: protein: recombinant; tags: N-terminal His6 removed by thrombin; Gly-Ser-His left before Met1; label: 5' Cy3
T1 sequence: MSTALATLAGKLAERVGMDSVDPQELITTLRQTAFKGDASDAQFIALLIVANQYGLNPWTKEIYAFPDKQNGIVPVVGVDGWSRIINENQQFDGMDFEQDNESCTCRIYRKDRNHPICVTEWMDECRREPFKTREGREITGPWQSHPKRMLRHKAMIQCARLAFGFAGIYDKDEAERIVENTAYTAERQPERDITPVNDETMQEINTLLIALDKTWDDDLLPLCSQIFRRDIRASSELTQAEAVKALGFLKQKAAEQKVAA

Redβ R152A = target: T2, Redβ R152A (Bacteriophage λ (Enterobacteria phage λ), UniProt P03698 1-261, R152A); details: protein: recombinant; tags: His6 removed; N-terminal GSH left; label: 5' Cy3
T2 sequence: T1 sequence with R152A

Redβ K148A = target: T3, Redβ K148A (Bacteriophage λ (Enterobacteria phage λ), UniProt P03698 1-261, K148A); details: protein: recombinant; tags: His6 removed; N-terminal GSH left; label: 5' Cy3
T3 sequence: T1 sequence with K148A

Redβ R161A = target: T4, Redβ R161A (Bacteriophage λ (Enterobacteria phage λ), UniProt P03698 1-261, R161A); details: protein: recombinant; tags: His6 removed; N-terminal GSH left; label: 5' Cy3
T4 sequence: T1 sequence with R161A

Redβ D80A = target: T5, Redβ D80A (Bacteriophage λ (Enterobacteria phage λ), UniProt P03698 1-261, D80A); details: protein: recombinant; tags: His6 removed; N-terminal GSH left; label: 5' Cy3
T5 sequence: T1 sequence with D80A

Redβ R149A = target: T6, Redβ R149A (Bacteriophage λ (Enterobacteria phage λ), UniProt P03698 1-261, R149A); details: protein: recombinant; tags: His6 removed; N-terminal GSH left; label: 5' Cy3
T6 sequence: T1 sequence with R149A

In the case of TGCGGATGGCTTAGAGCTTAATTGCTGAATCTGGTGCTGTAGCTCAACAT (ssDNA) [50-minus ssDNA], the binding result (Redβ WT) is reported as “binds”, the binding signal (Redβ R152A) is reported as 13 % of WT binding at 3 µM protein and the binding signal (Redβ K148A) is reported as 43 % of WT binding at 3 µM protein. The binding signal (Redβ R161A) was 11 % of WT binding at 3 µM protein, the binding signal (Redβ D80A) was 87 % of WT binding at 3 µM protein and the binding signal (Redβ R149A) was 44 % of WT binding at 3 µM protein.
